Experiment: soluble on expression in E. coli; label from the status in PepcDB or PDB records

Sequence | soluble on expression in E. coli
MAHHHHHHMLSRLSERCTIATGLEQVLRHYVWSAAWLRDAEPAAAASENIDLSGLMERAGRAAYDVFANLYTSQKHWLILVGSGNNGGDGYVIARHAREAGKIVTVLRMPHSKPLPTEAASAQHAWKAVGGTESTMSPGAPLQLPADVDLIVDGLLGTGICGPPREQYADVIRHINGLPVPRVAIDIPSGLNAETGEAAGACVKADHTATFICLKPGLLTGQAKDYVGQLHYRSLGLEDWMTAPERMRVALCRRVALDDVYEYFGIRRSALAHKGSCGKAILVGGDHGFGGAALMSAEACVTVGAGLTRVLTRPEYAAPLLTRCPEAMVTAVETDTGEQLKQQMLEAFEWASTLAVGPGLGTGAYGQAALTAALRHAELHQDKTLVLDADALNLLAGCLHGREGGAAAGARKHLPVLPNSIITPHPGEAARLLDCRVADVEKDRLAAARRLAAILGGTCLLKGPGTIVHCHSSAKTAIVDAGNAGMASGGMGDVLTGLLAGLAAQRMHDTFDTTCAGALVHGVAADMVAAEDGRGTRGIRATELIHRVPLIVNASGPSPASRQRPSGQ | soluble
MAHHHHHHMLSTSQAFLASLRYRRPYWMLFLKGADNWKIYTVIQQPDHQRTEMLYQAWLGGLDRPYVRPKCMAHQPVWLSKKRHLLQKARLEGPETSVEKYVLEWYKKFHSFQGTDRPTAEDLHTAFDLVERPLDLSYACQLLNQCRNHYYIRLSDDSFEIFLEACLRVDRRDCAIYALEHAEELGFWHVSDNCRRYLAGEQTWYKRSPVDLLYYPLEENAERNTAVTSGTAASAVAASDKVKGDEKVEGAPRTSATTSATAASAENEGEAEVTDDEIARLQAELEALEREIGSEGADGTDKD | not soluble
MAHHHHHHMMKNTVRQFVKEITYLEVWEHFRRFGDAAGPDSVKCRLLCSDAVATQLNERIRMRYLLEQFLAQSSTTTSTGVAGEPRRWWEGDLTRCVDSDRRVLAETLLEDGWMLMQLNNCVSDREWLITTMTFQREKSTT | not soluble
MAHHHHHHMMSFTANSGNSPMSQMSPLSQPYTSPQMLPQSSLRPTAPPFTLSGTEDQPTAGAPIRKGGTDPTRYKTTICRNWEMGSCSFKGCTFAHGEEELRMPPRVERYKSSGFDTRRSLTAETPPLYPLNPLPHSGVGRIEHLLNMLYSEVLRERNRFVAHEEANQALEALLKKEQMQREETEVQLEAARWKLEQLRTTVHEASVEINTLLASSPANEELRDRVAMVTQKIASVFSSEDTAVGGGREDEERVMKLLSSLQNCQSTEDM | not soluble
MAHHHHHHMMSNTTSSGKGPTTFMWNSVPPSGDMPLHGCCHSLANYKDEQLILFGGGALHIIFNDVYCFDLKTSTWSYKETTNSEIVAPRISHSAVVHEDKMYVYGGQDLYMPTRFADVLVLDLITFTWSLIQQQATPAPDGPGDRRLHTAHIYRNCMYVLMGEPCNISNSFWFLDLTTLEWHPVHSSGWFGKPILPLLGHSAQVEGDYLYVFGGYHADSARRNGSPVYNNSLFSYHFPSNTWREVVPSSGPRPSPRYASAMAVIRGRVFIYGGDVDGEVYFDDFWCIDTNIPSSAASQSSSSSSYTTSLVAAPPAASSRWIDITLSCGRGRPSARSGHASAVAQGCLFVVGGELPGDRDVVYYSNRTYRYPLGYLTRLSLVELSSLWLAKCNPANIWMLDTQIPRHVRQLLVRNLNAQDRESTDDMMPCTRVVC | not soluble
MAHHHHHHMNAVKLPEEWETLCSTNDAEVIHECINGVFRRLLANLLLDFNNPKLRQVKKDNKALHRLTDSLPAGFIEFLFSSIGFVEHDDVFIFEGSPESLKHGDAVLSYIEDSFGKERLQAAECELHRLRNLAIKKAENGLAPREMMTATAPLPRTQPLPQEEDAKRQAQHSGTEKDVAEEHAVKETVRKTLLNTGRVRNGFFEARDFSVRIMQHGRVYACTEKCPDHCVEVHWHLLTGRNILYSHLAHLSADGTRLLHLGPEHGYQYNSLPGSANFGKMIHFSEKLMDENGRLVHIKNDDKPVTACIYCGRAFAQLLL | not soluble
MAHHHHHHMNLSDSNKDLNDSKSDKSTSWVKWFNSRAFSNFLVEVDNEYITDSFNLYGLKSEMPNFNHLLSIVAGDAPEEDDAKNAFGKDAVSLYSLIHARFITTPKGLSLMKDKYIKGDFGSCPRVSCSQHNVLPIGLFDQIKIAKVHVYCPLCQEIYKIHEEDKVYLDGSFFGTSFPHILLQTYPYYATLKTPSYCTSKIFGFSVYHNFTRTEYKIAKGEFGKLSRENFLKKNPKYLKKLKKEELQIKDT | not soluble
MAHHHHHHMNPSLSDSKFEKAMSKLQLLEDSRTILHRMLQHAHFSFSNAQRQMDRTGLLLAWEAVPTAAGAVKPQYCIVREMKDGGNGGDAGVGAAAISDDNVDCAVWKLVNCGDSAGEDPAKWFAVAPSEALRECQQHFRGVVNACVKVIQAQEEAITAAATVPVT | not soluble
MAHHHHHHMNSNPTTEMTTTKKEHSQDNMCEIMNKSDKNNNSSLSSRSEKSQSEEIKLCNSGIFNEDKEKQYNDFLKSYNAEYSVEQMKNFLKNGITENGVRILTTDKCSWLYDYYRITKTSDPCVKELTGNTTVDYYYYTTPFSTQIGNINLVMMHSQVNFGDGTCAPADRFFKMNSTTPEMIKEAKLKAKNFQYECMQYI | not soluble
MAHHHHHHMNSTDTKQSAGYFKEKATIGLSSFSGDEIVKAILKTTSHLLKAPKEKYMQKLVAASYGQYGSGLREGLPINEFIVRELEKRSHTHNWIVVLKTMVSFHRLMCDASDSMVETICYYRHVFRASNIKNLADTADGAGQAYFIAQYMTYLEERCVMQSALGKGRRVEIREFEEYLETLNAKSLQPVFEILLRLFEAVPAVEYREAVVNNFCTLEAYQLLVRDGKQLFQHLAKRVIFILDGFEDFSLPEKRRWFDLYRRYASAFASVKQYFDSMLCSSRVFLEPVPKLKPLPESLLTRLEGDIRASETAKEGLCTLESLGICSREDSRVDSKEEKIRPPRAPEPAVVNQSEAVTALTPAAPTVSLDDLFVPSQEPTKPVQPASCPASWTPAPLAATSFQQGSEQFQWETGVPQNWGSGGHITLQAIATPPVPPPQHAFSGGAPPPAGEGALYPLVQSALKQPPPPVQFKKPADPLKDLYNSCHWQSN | not soluble
MAHHHHHHMNSTTTISADPDGSSLCAASRISTPGTMSVLVPYKRRGQKSSMARGGASPQRRSPQPPYAGKSISTSASTLSSSVQPHGAGAASRGDQSRRGDAAPDGTLNAYSSHPAAPLDRPRDEEFDAVEQRARMALESIATRDEDLEPSMGDHIGVLQSYRTACEARAMYREAYLVQQVLRNLRLEEESRHVRGITEQQMEERRILEEAHRQEFREFHHSWNARIDAFEEEQLEAELALLERQNEELIRFQEEMRNFQPRLLRYSRSLLESRLKQQTLAKQRDYVGAQAQKAHAEAIEVEDIERFEAARMSLFERREYAARHRHQQELYALRTKVESRRLYLERYRKQELDVLLQRYINARRSMESQQNIVRNKTGTLLLKHACNMKTDSSGTAVLVESAGSGAFGTMVQRRQAYELRALQGSPDGASASVRDGSAM | not soluble
MAHHHHHHMNTHVISVGSRWVHHEVTQALRQRRGVRVEVNEELQHCDFASRASSVLYCDAHSAEMQRDQASLVLRLQEARQRCGTQPVILMVRMDSDNEVSLERLSWLNLECGVAQQCGLILVWSLDDAVQYLASLAAYAVTSLEFTGAARPYVGDAPLPVLVDALTQTPQVVTRNDVVRIANRKTSVADALMSEASEWEGIAGLGRKKAARLQHLFRTPFLSSQQRIDSFVPATGGSSFSTASKAAESHLSQPTGESTARPTEALSVDTAVTTEGRRRMMSALQQRLDKEDEEGGE | not soluble
MAHHHHHHMNVRKGILNYLTLHSTIVRRNHHRSYHKECRQQGSPHGMEKNSKMKNVRPNYFVCIPLSGNKALVEEFLKVQNHVASKFEMLKECAIERNKFHISLLILHVKKSQMESSKEAFHEAMAEIKKLNHQAISFDTLETFRNDVLYAGLQEGSRKYVMNVIALLRDSFAKRDIHIFGNRKGREEARGKKRASGASDKSAANPIDKSAANPSDKSAAPPGTHERDDKEQITPHVTIMKNSYLRKIYANRKPQIFADYYADFNLSKLKNERVVPNKIQFLEMDTDSATSYYRIIAECGLP | not soluble
MAHHHHHHMPKYYCEYCDIYLTHSSPVGRRQHIHGRKHISAKIEYFQNLLREEGITPQNFLGFLNNRNINNPLGNPMMNYMNPNMYMKYNPMKSYHSYSMRSSHPYRLNIHNNKYSRAGYVPPSHHKYSVNPMHNNYHQAHNNYSYPNSINPSNQINYSNNYGSNNFNNSNEFNKNMNEKDNINNNDIHDNKVKTDENDPINNDNLNNTRNFSYEENHYSTDHKKPSFLNPENSKEHIESDIS | not soluble
MAHHHHHHMPPLTLEQVLARSMRLPRKHMKHTATPMASNPAIGISTPLDNSLGRGDKSVAKLFSLIEKDEESTAAGRPFIHQSNNLIRNSHDLLTYLHTAKRMRAWEDALRSFAEVTKMLLINQTEEGDGVSLTLREGAEGAEGVTASVSHLALLLDTCASAKQWHLVEQIGEIFRSQSRQTLIDAVAVLANTKKETIGEGLYGWERALHFLQTRIPPEEQPVEAYNACIAACETALEWEGALAIVRSMGPNPLQNLDSKVFSGTTGIGVASAGSTVEGVSSSLGTEAREESVLATFPPPVPDVVTYATLISVLEQSGKEALASEVLQRLPPVEKEEITASYAALIHVWSEQKYRNHRRRF | not soluble
MAHHHHHHMPSDRVPSGDGFNNPYGNTTLVGNWLEDRLQQRIVHKRRGGAAATWCAQGIFEDPAVTMARHPAEAQAALLHSTYDVDYGHRPGRTQRTASGGVDNSAAASTLMRGSKHNANAAGPGSASSTAKGGIDKVLLFSIDPVADPAAPLPLSTNADTYGAFYYGNDNGSVDNNGARHAGSATGATTSSPADQGDGGATAPPADADRNLYDSVSRAVAAAAAPSSSFRMPRAPMQRGANADATFSSSPVPRRHMLSLGVATTSTFGHTGWTLASSSATSAADHVGAAPWRPLQRHRLPNKDSMDDERWCSSKQAADTPVEHFTLQQRLPPVRM | not soluble
MAHHHHHHMPSLFDPLTIGDLTLANRIIMAPLTRARAGDTRTPNALMARYYAERASAGLIISEATSVTPQGVGYASTPGIWSPEQVDGWRLVTDAVHAAGGRIFLQLWHVGRVSDPVFLDGALPVAPSAIAPGGHVSLVRPQRPYVTPRALELDEIPGVVAAFRRGAENARAAGFDGVEVHGANGYLLDQFLQDSANRRTDAYGGSIENRARLLLEVVDAAIDVWSAARVGVHLAPRGDAHTMGDSDPAATFGHVARELGRRRIAFLFARESFGGDAIGQQLKAAFGGPFIVNENFTLDSAQAALDAGQADAVAWGKLFIANPDLPRRFKLNAPLNEPNAATFYAQGEVGYTDYPALESAA | soluble
MAHHHHHHMPTFSDIMAARKALDGYVYETPIIESNALHGKTRHESVLLKCENLQRTGSYHVRGMTYRVIRAKEEDLGINNFVTHSSGNGGAALACAASNFQSTAHVVVPEDTNALITRSIRLYHGNFYYCKPDLKSRVEMEARLHSEFNKVAGKKRNQCMLVNPYSDEAIIAGHGTTGIEIMLQTDCSVDCVVIPVGGGALLAGAAIAVKGMKPHVGVFAAELAVPPDHYTVFKRGEVIEARKLKGDEKRPKGNKHGIRTELTDLANSYIDRYVDGVVHVSKEEMCYAFRYVYERCKLVVDTNAAIAVAAVLACPQELSNYRRICIVLSGGNVDLNDVPKIATARL | soluble
MAHHHHHHMQNLSPACTFNKNEEKIKCPSSTKLGCSDGTKIIQHEINERNMMPEIPNVSLTDENDFTFNKKRHVSSIPKNNNEYWVYPSSQQFYNSLIRKNKDIDKNYIDAVVSVHNEVNEESWKQILKYEHMHKRSCTDVTLHRFLGKFDDLSIKARFRSIFSRGKKKKNNNNNKKSVKGFFFMGRPFDRHDWYVNRCGTQVKYILDYYNDESINDDKNIYIDVRPAMNSFSNVWDRLRYPFYEFYFKYVKKDELFK | not soluble

— the DeepSol protein solubility set
